Measured values reported in patent US12668611B2, “Cell-penetrating peptide and use thereof” (IMNEWRUN, INC., priority 2020, dated 2026).
Peptide text beside a SMILES is read from it.

How the values were obtained:
C57BL/6 mice = assay: Comparative analysis of in vivo blood-brain barrier (BBB) permeability (two-photon microscopy); set-up: species or system mouse; conditions: 15 mg/kg tail vein, imaging for 90 minutes; FIG. 5A-5F
Procedure: Specifically, in order to perform in vivo real-time imaging using a two photon microscopy, operations to install a cranial window were performed in living mice (C57BL/6). Before making the cranial window, inhalation anesthesia was induced with 3% isoflurane in the mice, and the body temperature of the mice was maintained at 36.5° C. to 37.5° C. by using a heating pad. After induction of anesthesia, the concentration of isoflurane was adjusted to 1.5% to maintain anesthesia. In addition, to confirm the degree of maintenance of anesthesia, heart rate and SpO2 were confirmed in real time. Afterwards, craniotomy was performed by using a dental drill in order that the cranial window has a diameter of 3 mm at the skull coordinates of ML, +2.5 mm, and AP, −1.5 mm. After the skull was removed by craniotomy, the brain was covered with a cover glass having a diameter of 4 mm, and the cover glass was adhered by using a cyanoacrylic bond. Next, a head frame, capable of fixing the mouse's head under a two-photon microscope, was attached so that the cover glass would come to the center. After a first bonding of the cover glass and the frame by using the bond, a second bonding was performed and all exposed skulls were covered from the border of the cover glass with dental resin so that imaging could be performed by using a water immersion lens. […]

[1] = tested on: hCMEC/D3 cells, which are human blood-brain barrier cells; assay: In vitro cell permeability analysis (FITC fluorescence imaging, Cytation 5); type: cell-based; conditions: peptides linked to FITC, 4 μM, 2 hours, FIG. 1
Procedure: The present inventors performed in vitro cell permeability analysis on a total of 12 candidate peptides synthesized in Example 1 above. Specifically, hCMEC/D3 cells, which are human blood-brain barrier cells, were seeded in a 96-well plate at 18,000 cells/well, and incubated overnight at 37° C. under CO2 conditions in a endothelial cell growth medium (EGM), which is an […], until the cells reached 80% to 90% of the plate area. Subsequently, the 12 candidate peptides linked to FITC prepared in Example 1-2 and FITC alone, a negative control, were diluted in the medium to 4 μM to prepare an amount to be treated by 100 μl per well. Subsequently, the culture solution was removed from the cell culture plate by suction, and the peptide was diluted and treated with the solution prepared in advance, and then cultured at 37° C. under CO2 conditions for 2 hours. […] After incubation, DAPI and GFP fluorescence were image read by using a Cytation 5 equipment, and the cell nucleus was parcellated with DAPI by image processing. Subsequently, a value of 20 μM of FITC around the cell nucleus was measured, divided by DAPI to obtain a mean-FITC value, and the value was corrected with a value of FITC experimental group, a negative control group, to calculate permeability in the blood-brain barrier cells. […]

hCMEC/D3 cell line = assay: Comparative analysis of cell permeation effect through flow cytometry; type: cell-based, human; conditions: 10 μM, 2 hours, p<0.0001, FIG. 4
Procedure: First, with respect to the transpep-1-FITC and angiopep-2-FITC prepared in Example 1-2, an amount of fluorescence inflow into a single cell was identified and quantified through flow cytometry. Specifically, an hCMEC/D3 cell line was aliquoted at 15,000 cells/well using an EGM culture medium containing 2% bovine calf serum (BCS), and 24 hours later, cells were treated with each of the two peptides at a concentration of 10 μM, and then were incubated for 2 hours at 37° C., under CO2 conditions. Thereafter, the cells were washed with 1×PBS, and then were separated from the bottom of the plate by incubating for 3 minutes after 1.1% trypsinase-EDTA (TE) was added, and then an EGM cell culture solution of about 3 times the amount of TE was added, and the sample was centrifuged at 100 rpm for 5 minutes. Next, the supernatant was removed by suction, and the cells were resuspended in 250 μl of 1×PBS, and then transferred to a BD Falcon 12×75 mm Tube with Cell Strainer Cap, and inflow of fluorescence according to each peptide was analyzed by flow cytometry.

Molecule | amount delivered to the extravascular area compared to angiopep-2-FITC (C57BL/6 mice) | fluorescence in the intravascular region (in vivo stability) compared to angiopep-2-FITC (C57BL/6 mice) | cell permeability (FITC fluorescence) [1] | fluorescence intensity (inflow into single cell) compared to angiopep-2-FITC (hCMEC/D3 cell line)
CC(C)C[C@H](NC(=O)[C@H](CCCNC(=N)N)NC(=O)[C@H](CCC(=O)O)NC(=O)[C@H](Cc1c[nH]cn1)NC(=O)[C@H](Cc1c[nH]cn1)NC(=O)CNC(=S)Nc1ccc2c(c1)C(=O)OC21c2ccc(O)cc2Oc2cc(O)ccc21)C(=O)N[C@@H](CCCCN)C(=O)N[C@@H](CO)C(=O)N[C@@H](CC(=O)O)C(=O)N[C@@H](CCC(=O)O)C(=O)N[C@@H](Cc1c[nH]c2ccccc12)C(=O)N[C@@H](CO)C(=O)N[C@H](C(=O)N[C@H](C(=O)N[C@@H](CO)C(=O)NCC(=O)O)[C@@H](C)O)C(C)C [transpep-1-FITC] (HELM PEPTIDE1{[O=C1OC2(c3ccc(O)cc3Oc3cc(O)ccc32)c2ccc(NC(=S)[*:2])cc21].G.H.H.E.R.L.K.S.D.E.W.S.V.T.S.G}$$$$V2.0) | greater | higher in vivo stability |  | 
GHHERLKSDEWSVTSG (transpep-1) |  |  | confirmed to have cell permeability | significantly higher
